What was measured:
[1] = target: SscR^Ac (RSS-sensitive transcription factor in copper stress response), MarR family transcriptional regulator of Acidithiobacillus caldus (Acidithiobacillus caldus); experiment: SEC
[2] = target: SscR^Ac after H2Sn treatment (persulfidated SscR^Ac) (Acidithiobacillus caldus); experiment: SEC

Row | Substance | stoichiometry N [1] | stoichiometry N [2]
1 | SscR^Ac (RSS-sensitive transcription factor in copper stress response), MarR family transcriptional regulator of Acidithiobacillus caldus (natural protein) | 4 | –
2 | SscR^Ac after H2Sn treatment (persulfidated SscR^Ac) (natural protein) | – | 4
